Assay results published in US20100029554A1, “Composition and Methods for Treatment of Congestive Heart Failure” (Amylin Pharmaceuticals, Inc., priority 2006, published 2010).
Where no end group is shown, it is not given here.

Molecular target: T1, GLP-1 receptor, endogenous in RINm5f cells (rat (RIN-m5F are called rat pancreas …, UniProt P32301 22-463))
T1 sequence (looked up): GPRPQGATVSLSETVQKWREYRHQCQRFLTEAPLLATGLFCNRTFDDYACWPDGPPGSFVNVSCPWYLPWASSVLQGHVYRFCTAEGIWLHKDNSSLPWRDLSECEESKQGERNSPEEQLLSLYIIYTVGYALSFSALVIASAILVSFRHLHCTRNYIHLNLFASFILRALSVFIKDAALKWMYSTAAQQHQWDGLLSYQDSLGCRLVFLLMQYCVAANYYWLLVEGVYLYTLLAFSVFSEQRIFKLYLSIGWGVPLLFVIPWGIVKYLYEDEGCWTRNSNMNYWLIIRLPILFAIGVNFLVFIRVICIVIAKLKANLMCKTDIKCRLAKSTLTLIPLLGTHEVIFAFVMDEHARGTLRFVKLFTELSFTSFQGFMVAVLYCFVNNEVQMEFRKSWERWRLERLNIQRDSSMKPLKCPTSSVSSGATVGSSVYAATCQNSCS
Assay: cell-based or functional assay
Details: not given

Molecule | cAMP, CYCLASE GLP/GIP/CT (RIN) EC50 | cAMP, GLP-1 CYCLASE (6-23) EC50
HGEGTFTSDLSKQVQEEAVRLFVEFLKN-NH2 [Cmpd 5035] | 628000 pM | –
HGEGTFTSDLVKILEAEAVRKFIEFLKNGGPSSGAPPPS-NH2 [Cmpd 5529] | – | 388 pM
HGEGTFTSDVTEYLEEEAVRLFIEWLKQGGPSSGAPPPS-NH2 [Cmpd 5129] | 1090 pM | –
HGEGTFTSDLSKQLEEEAVRLFIEWLIKGKP [Cmpd 5227] | – | 629 pM
HGEGTFTSDLSKQLEEEAVRLFIEWLKNGKPGKGKIRYS [Cmpd 5295] | – | 89 pM
HGEGTFTSDLSKQLEEEAVRLFIEWLKNGKPGGKKIRYS [Cmpd 5451] | 205 pM | –
HGEGTFTSDLSKQLEEEAVRLFIEWLKNGKPKKIRYA [Cmpd 5439] | – | 170 pM
HGEGTFTSDLSKQLEEEAVRLFIEWLKNGKPKKIAYS [Cmpd 5440] | – | 130 pM
HGEGTFTSDLSKQLEEEAVRLFIEWLKNGKPKKARYS [Cmpd 5441] | – | 128 pM
HGEGTFTSDLSKQLEEEAVRLFIEWLKNGKPKAIRYS [Cmpd 5442] | – | 100 pM
HGEGTFTSDLSKQLEEEAVRLFIEWLKNGKPAKIRYS [Cmpd 5443] | – | 80 pM
HGEGTFTSDLSKQLEEKAAKEFIEWLIQGGPSKEIIS [Cmpd 5101] | 863 pM | –
HGEGTFTSDLSKQLEEEAVRLFIEWLKNGGPSKEIIA [Cmpd 5444] | – | 90 pM
HGEGTFTSDLSKQLEEEAVRLFIEWLKNGGPSKAIIS [Cmpd 5446] | – | 100 pM
HGEGTFTSDLSKQLEEEAVRLFIEWLKNGGPSKEIAS [Cmpd 5445] | – | 90 pM

Tested on: GLP/GIP/CT cyclase, RIN-m5F cells
Assay: GLP/GIP/CT Cyclase (RIN) assay
Assay type: cell-based, rat
Details: cAMP, values without **
Experimental: GLP/GIP/CT Cyclase (RIN) Assay
Five μl of serially diluted peptides are transferred to the 384-well assay plate. Rat pancreas insulinoma cells (RIN-m5F) are detached from a tissue culture flask with Versene and washed once in buffer. Then RIN-m5F cells are resusupended in buffer at 2.5×10^6 cells/ml. Then 10 μl cells (2.5×10^4 cells) are added to all wells of the assay plate and cells are stimulated at room temperature in the dark for 30 minutes. The reaction is terminated with 10 μl of lysis buffer and incubated at room temperature for 4 hrs in the dark. cAMP content is measured using Perkin Elmer AlphaScreen™ cAMP assay kit and results are read on a Perkin Elmer Fusion fluorometer. The assay is completed in 384-well plates at 25 microliter volumes.

Molecule | EC50
GLP-1-(7-37)-GG-(S)-2,6-diamino-1-(thiazolidin-2-cyano-3-y1)hexan-1-one amide (HAEGTFTSDVSSYLEGQAAKEFIAWLVKGRGGG; C-terminal cyano DPP4 inhibitor moiety, amide) [Cmpd 4845] | 400 pM
CC[C@H](C)[C@H](NC(=O)[C@@H]1CCCN1C(=O)[C@@H](NC(=O)CNC(=O)CNC(=O)CNC(=O)[C@H](CO)NC(=O)[C@@H]1CCCN1C(=O)[C@H](CCCNC(=N)N)NC(=O)CNC(=O)[C@H](CCCCN)NC(=O)[C@@H](NC(=O)[C@H](CC(C)C)NC(=O)[C@H](Cc1c[nH]c2ccccc12)NC(=O)[C@H](C)NC(=O)[C@@H](NC(=O)[C@H](Cc1ccccc1)NC(=O)[C@H](CCC(=O)O)NC(=O)[C@H](CCCCN)NC(=O)[C@H](C)NC(=O)[C@H](C)NC(=O)[C@H](CCC(N)=O)NC(=O)CNC(=O)[C@H](CCC(=O)O)NC(=O)[C@H](CC(C)C)NC(=O)[C@H](Cc1ccc(O)cc1)NC(=O)[C@H](CO)NC(=O)[C@H](CO)NC(=O)[C@@H](NC(=O)[C@H](CC(=O)O)NC(=O)[C@H](CO)NC(=O)[C@@H](NC(=O)[C@H](Cc1ccccc1)NC(=O)[C@@H](NC(=O)CNC(=O)[C@H](CCC(=O)O)NC(=O)[C@H](C)NC(=O)[C@@H](N)Cc1c[nH]cn1)[C@@H](C)O)[C@@H](C)O)C(C)C)[C@@H](C)CC)C(C)C)[C@@H](C)CC)C(N)=O [Cmpd 4888] | 170 pM
HGEGTFTSDVTQQLEEEAVRLFIEWLKQGGPSSGAPPPS-NH2 [Cmpd 5099] | 1290 pM
HGEGTFTSDLVKILEAEAVRKFIEFLKN-NH2 [Cmpd 5052] | 4500 pM
HGEGTFTSDLSKQVQEEAVRLFVEFLKN-NH2 [Cmpd 5035] | 628000 pM

Tested on: not listed separately
Assay: Plasma stability
Assay type: in vitro ADME
Details: 20 μg/mL in plasma, 37° C., 0-5 hours
Experimental: To assess stability, the compound of interest is spiked into plasma at a concentration of 20 μg/mL. It is incubated at 37° C. for 0, 1, 2 3, 4, 5 hours in triplicate. At each time point, MeOH is added to a 96 well microtiter plate and then sample is added in a ratio of 1 part sample to 4 parts MeOH to quench the digestion reaction. Samples are mixed with multi-channel pipette or liquid handler. The plate is then centrifuged for 10 minutes and placed in an autosampler kept at 10° C. Samples are then injected into a mass spectrometer (API 3000, Applied Biosystems) equipped with an autosampler (Leap HTC Pal) and HPLC pumps (Shimadzu LC-10ADVP).

Molecule | plasma stability as compared to native GLP-1
HGEGTFTSDVTQQLEEEAVRLFIEWLKQGGPSSGAPPPS-NH2 [Cmpd 5099] | increased plasma stability
CC[C@H](C)[C@H](NC(=O)[C@H](Cc1ccccc1)NC(=O)[C@H](CCC(=O)O)NC(=O)[C@H](CCCCN)NC(=O)[C@H](C)NC(=O)[C@H](C)NC(=O)[C@H](CCC(N)=O)NC(=O)CNC(=O)[C@H](CCC(=O)O)NC(=O)[C@H](CC(C)C)NC(=O)[C@H](Cc1ccc(O)cc1)NC(=O)[C@H](CO)NC(=O)[C@H](CO)NC(=O)[C@@H](NC(=O)[C@H](CC(=O)O)NC(=O)[C@H](CO)NC(=O)[C@@H](NC(=O)[C@H](Cc1ccccc1)NC(=O)[C@@H](NC(=O)CNC(=O)[C@H](CCC(=O)O)NC(=O)[C@H](C)NC(=O)[C@H](Cc1c[nH]cn1)NC(=O)COCCOCCN)[C@@H](C)O)[C@@H](C)O)C(C)C)C(=O)N[C@@H](C)C(=O)N[C@@H](Cc1c[nH]c2ccccc12)C(=O)N[C@@H](CC(C)C)C(=O)N[C@H](C(=O)N[C@@H](CCCCN)C(=O)NCC(=O)N[C@@H](CCCNC(=N)N)C(N)=O)C(C)C [Cmpd 4992] | increased plasma stability
CC[C@H](C)[C@H](NC(=O)[C@H](Cc1ccccc1)NC(=O)[C@H](CCC(=O)O)NC(=O)[C@H](CCCCN)NC(=O)[C@H](C)NC(=O)[C@H](C)NC(=O)[C@H](CCC(N)=O)NC(=O)CNC(=O)[C@H](CCC(=O)O)NC(=O)[C@H](CC(C)C)NC(=O)[C@H](Cc1ccc(O)cc1)NC(=O)[C@H](CO)NC(=O)[C@H](CO)NC(=O)[C@@H](NC(=O)[C@H](CC(=O)O)NC(=O)[C@H](CO)NC(=O)[C@@H](NC(=O)[C@H](Cc1ccccc1)NC(=O)[C@@H](NC(=O)CNC(=O)[C@H](CCC(=O)O)NC(=O)[C@H](C)NC(=O)[C@H](Cc1c[nH]cn1)NC(=O)COCCOCCNC(=O)[C@@H]1CCCN1C(=O)[C@H](C)NC(CCc1ccccc1)C(=O)O)[C@@H](C)O)[C@@H](C)O)C(C)C)C(=O)N[C@@H](C)C(=O)N[C@@H](Cc1c[nH]c2ccccc12)C(=O)N[C@@H](CC(C)C)C(=O)N[C@H](C(=O)N[C@@H](CCCCN)C(=O)NCC(=O)N[C@@H](CCCNC(=N)N)C(N)=O)C(C)C (stereo partly drawn) [Cmpd 4983, (R,S)-1-[N2-(1-carboxy-3-phenylpropyl)-L-ala]-L-pro-ado-GLP-1-(7-36) amide] | increased plasma stability
CC[C@H](C)[C@H](NC(=O)[C@H](Cc1ccccc1)NC(=O)[C@H](CCC(=O)O)NC(=O)[C@H](CCCCN)NC(=O)[C@H](C)NC(=O)[C@H](C)NC(=O)[C@H](CCC(N)=O)NC(=O)CNC(=O)[C@H](CCC(=O)O)NC(=O)[C@H](CC(C)C)NC(=O)[C@H](Cc1ccc(O)cc1)NC(=O)[C@H](CO)NC(=O)[C@H](CO)NC(=O)[C@@H](NC(=O)[C@H](CC(=O)O)NC(=O)[C@H](CO)NC(=O)[C@@H](NC(=O)[C@H](Cc1ccccc1)NC(=O)[C@@H](NC(=O)CNC(=O)[C@H](CCC(=O)O)NC(=O)[C@H](C)NC(=O)[C@H](Cc1c[nH]cn1)NC(=O)COCCOCCNC(=O)COCCOCCNC(=O)[C@@H]1CCCN1C(=O)[C@H](C)NC(CCc1ccccc1)C(=O)O)[C@@H](C)O)[C@@H](C)O)C(C)C)C(=O)N[C@@H](C)C(=O)N[C@@H](Cc1c[nH]c2ccccc12)C(=O)N[C@@H](CC(C)C)C(=O)N[C@H](C(=O)N[C@@H](CCCCN)C(=O)NCC(=O)N[C@@H](CCCNC(=N)N)C(N)=O)C(C)C (stereo partly drawn) [Cmpd 4984, (R,S)-1-[N2-(1-carboxy-3-phenylpropyl)-L-ala]-L-pro-ado-ado-GLP-1-(7-36) amide] | increased plasma stability

Same assay, conditions: second, narrower list of b152; 20 μg/mL in plasma, 37° C., 0-5 hours

Molecule | plasma stability as compared to native GLP-1
HGEGTFTSDVTQQLEEEAVRLFIEWLKQGGPSSGAPPPS-NH2 [Cmpd 5099] | increased plasma stability
CC[C@H](C)[C@H](NC(=O)[C@H](Cc1ccccc1)NC(=O)[C@H](CCC(=O)O)NC(=O)[C@H](CCCCN)NC(=O)[C@H](C)NC(=O)[C@H](C)NC(=O)[C@H](CCC(N)=O)NC(=O)CNC(=O)[C@H](CCC(=O)O)NC(=O)[C@H](CC(C)C)NC(=O)[C@H](Cc1ccc(O)cc1)NC(=O)[C@H](CO)NC(=O)[C@H](CO)NC(=O)[C@@H](NC(=O)[C@H](CC(=O)O)NC(=O)[C@H](CO)NC(=O)[C@@H](NC(=O)[C@H](Cc1ccccc1)NC(=O)[C@@H](NC(=O)CNC(=O)[C@H](CCC(=O)O)NC(=O)[C@H](C)NC(=O)[C@H](Cc1c[nH]cn1)NC(=O)COCCOCCN)[C@@H](C)O)[C@@H](C)O)C(C)C)C(=O)N[C@@H](C)C(=O)N[C@@H](Cc1c[nH]c2ccccc12)C(=O)N[C@@H](CC(C)C)C(=O)N[C@H](C(=O)N[C@@H](CCCCN)C(=O)NCC(=O)N[C@@H](CCCNC(=N)N)C(N)=O)C(C)C [Cmpd 4992] | increased plasma stability
CC[C@H](C)[C@H](NC(=O)[C@H](Cc1ccccc1)NC(=O)[C@H](CCC(=O)O)NC(=O)[C@H](CCCCN)NC(=O)[C@H](C)NC(=O)[C@H](C)NC(=O)[C@H](CCC(N)=O)NC(=O)CNC(=O)[C@H](CCC(=O)O)NC(=O)[C@H](CC(C)C)NC(=O)[C@H](Cc1ccc(O)cc1)NC(=O)[C@H](CO)NC(=O)[C@H](CO)NC(=O)[C@@H](NC(=O)[C@H](CC(=O)O)NC(=O)[C@H](CO)NC(=O)[C@@H](NC(=O)[C@H](Cc1ccccc1)NC(=O)[C@@H](NC(=O)CNC(=O)[C@H](CCC(=O)O)NC(=O)[C@H](C)NC(=O)[C@H](Cc1c[nH]cn1)NC(=O)COCCOCCNC(=O)[C@@H]1CCCN1C(=O)[C@H](C)NC(CCc1ccccc1)C(=O)O)[C@@H](C)O)[C@@H](C)O)C(C)C)C(=O)N[C@@H](C)C(=O)N[C@@H](Cc1c[nH]c2ccccc12)C(=O)N[C@@H](CC(C)C)C(=O)N[C@H](C(=O)N[C@@H](CCCCN)C(=O)NCC(=O)N[C@@H](CCCNC(=N)N)C(N)=O)C(C)C (stereo partly drawn) [Cmpd 4983, (R,S)-1-[N2-(1-carboxy-3-phenylpropyl)-L-ala]-L-pro-ado-GLP-1-(7-36) amide] | increased plasma stability
